Reference: patent publication US20190004036
Read-outs that look alike come from different tables or passages of the source.

Tests used:
[1] = test system: T1, 5FAMcollagenPPT protease substrate
T1 sequence: AGGPLGPPGPGGK

[2] = molecular target: T2, 5FAMcollagenPPT protease substrate
T2 chain: AGGPLGPPGPGGK

Molecule: Neutral Protease
- Km, with 4.14 mM calcium (FRET cleavage assay) [1]: 45.1 µM
- Km, without calcium (FRET cleavage assay) [1]: 74.1 µM
- Vmax, with 4.14 mM calcium (FRET cleavage assay) [1]: 29.3 RFU/min/µg
- Vmax, without calcium (FRET cleavage assay) [1]: 20 RFU/min/µg

Molecule: chymotrypsin
- cleavage of substrate (FRET assay, Example 3, 0.3125-10 µg/mL enzyme, 50 µM substrate) [1]: the mammalian proteases trypsin, chymotrypsin, and elastase do not cleave the protease substrate

Molecule: collagenase class I
- Km (FRET cleavage assay, Example 3) [1]: 28.2 µM
- Km, with 4.14 mM calcium (FRET cleavage assay) [1]: 32.9 µM
- Km, without calcium (FRET cleavage assay) [1]: 38.1 µM
- Vmax (FRET cleavage assay, Example 3) [1]: 909 RFU/min/µg
- Vmax, with 4.14 mM calcium (FRET cleavage assay) [1]: 1010 RFU/min/µg
- Vmax, without calcium (FRET cleavage assay) [1]: 1700 RFU/min/µg

Molecule: trypsin
- cleavage of substrate (FRET assay, Example 3, 0.3125-10 µg/mL enzyme, 50 µM substrate) [1]: the mammalian proteases trypsin, chymotrypsin, and elastase do not cleave the protease substrate

B1: thermolysin (protein)
chain: ITGTSTVGVGRGVLGDQKNINTTYSTYYYLQDNTRGNGIFTYDAKYRTTLPGSLWADADNQFFASYDAPAVDAHYYAGVTYDYYKNVHNRLSYDGNNAAIRSSVHYSQGYNNAFWNGSQMVYGDGDGQTFIPLSGGIDVVAHELTHAVTDYTAGLIYQNESGAINEAISDIFGTLVEFYANKNPDWEIGEDVYTPGISGDSLRSMSDPAKYGDPDHYSKRYTGTQDNGGVHINSGIINKAAYLISQGGTHYGVSVVGIGRDKLGKIFYRALTQYLTPTSNFSQLRAAAVQSATDLYGSTSQEVASVKQAFDAVGVK
- Km (FRET cleavage assay, Example 3) [2]: 34.6 µM
- Km, with 4.14 mM calcium (FRET cleavage assay) [2]: 24.8 µM
- Km, without calcium (FRET cleavage assay) [2]: 30.4 µM
- Vmax (FRET cleavage assay, Example 3) [2]: 24.6 RFU/min/µg
- Vmax, with 4.14 mM calcium (FRET cleavage assay) [2]: 25.5 RFU/min/µg
- Vmax, without calcium (FRET cleavage assay) [2]: 23.7 RFU/min/µg

B2: collagenase class II (protein)
chain: VQNESKRYTVSYLKTLNYYDLVDLLVKTEIENLPDLFQYSSDAKEFYGNKTRMSFIMDEIGRRAPQYTEIDHKGIPTLVEVVRAGFYLGFHNKELNEINKRSFKERVIPSILAIQKNPNFKLGTEVQDKIVSATGLLAGNETAPPEVVNNFTPILQDCIKNIDRYALDDLKSKALFNVLAAPTYDITEYLRATKEKPENTPWYGKIDGFINELKKLALYGKINDNNSWIIDNGIYHIAPLGKLHSNNKIGIETLTEVMKVYPYLSMQHLQSADQIKRHYDSKDAEGNKIPLDKFKKEGKEKYCPKTYTFDDGKVIIKAGARVEEEKVKRLYWASKEVNSQFFRVYGIDKPLEEGNPDDILTMVIYNSPEEYKLNSVLYGYDTNNGGMYIEPEGTFFTYEREAQESTYTLEELFRHEYTHYLQGRYAVPGQWGRTKLYDNDRLTWYEEGGAELFAGSTRTSGILPRKSIVSNIHNTTRNNRYKLSDTVHSKYGASFEFYNYACMFMDYMYNKDMGILNKLNDLAKNNDVDGYDNYIRDLSSNYALNDKYQDHMQERIDNYENLTVPFVADDYLVRHAYKNPNEIYSEISEVAKLKDAKSEVKKSQYFSTFTLRGSYTGGASKGKLEDQKAMNKFIDDSLKKLDTYSWSGYKTLTAYFTNYKVDSSNRVTYDVVFHGYLPNEGDSKNSLPYGKINGTYKGTEKEKIKFSSEGSFDPDGKIVSYEWDFGDGNKSNEENPEHSYDKVGTYTVKLKVTDDKGESSVSTTTAEIKDLSENKLPVIYMHVPKSGALNQKVVFYGKGTYDPDGSIAGYQWDFGDGSDFSSEQNPSHVYTKKGEYTVTLRVMDSSGQMSEKTMKIKITDPVYPIGTEKEPNNSKETASGPIVPGIPVSGTIENTSDQDYFYFDVITPGEVKIDINKLGYGGATWVVYDENNNAVSYATDDGQNLSGKFKADKPGRYYIHLYMFNGSYMPYRINIEGSVGR
- Km (FRET cleavage assay, Example 3) [2]: 24.5 µM
- Km, without calcium (FRET cleavage assay) [2]: 24.1 µM
- Vmax (FRET cleavage assay, Example 3) [2]: 5000 RFU/min/µg
- Vmax, without calcium (FRET cleavage assay) [2]: 3240 RFU/min/µg
